The results in this text go back to the supplement of paper PMC9112550, “Optimization of the antimicrobial peptide Bac7 by deep mutational scanning” (BMC Biology, 2022).

The series has as its system Escherichia coli TOP10. The experiment in a line: shrunken log2 fold change of peptide-encoding DNA abundance (4.5 h post-induction vs induction); higher = less antimicrobial activity (less host growth inhibition). Particulars: time post-induction: 4.5 h; library: site-saturation at positions 5, 18, 19, 20.
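Also: peptides expressed intracellularly from a pBAD plasmid library in pooled LB shake-flask culture, induced with 0.3% L-arabinose, DNA abundance read by NGS, three biological replicates, DESeq2 with apeglm shrinkage.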

For the sequence RRIRQRPPRLPRPRPRPHRRPRP, the “shrunken log2 fold change” value is -0.185. RRIRWRPPRLPRPRPRPQCFPRP: the “shrunken log2 fold change” value came to 0.146. To RRIRARPPRLPRPRPRPKKTPRP belongs -0.0919. To RRIRCRPPRLPRPRPRPESLPRP belongs -0.11. As for RRIRERPPRLPRPRPRPQQNPRP, the figure is -0.122. Turning to RRIRFRPPRLPRPRPRPKSHPRP, the “shrunken log2 fold change” value was -0.506. As for RRIRYRPPRLPRPRPRPPWKPRP, the figure is 0.0467; as for RRIRYRPPRLPRPRPRPIDDPRP, -1.19.

Turning to RRIRRRPPRLPRPRPRPIFDPRP, the “shrunken log2 fold change” value amounted to 0.369.

RRIRTRPPRLPRPRPRPDRWPRP: the “shrunken log2 fold change” value was 0.0353.

Turning to RRIRRRPPRLPRPRPRPFFMPRP, the “shrunken log2 fold change” value is -0.0188.

Consider RRIRCRPPRLPRPRPRPVGYPRP, for which the “shrunken log2 fold change” value stood at 0.0595. To RRIRVRPPRLPRPRPRPVTRPRP belongs 0.0259; to RRIRWRPPRLPRPRPRPLEDPRP, 0.047.

For the sequence RRIRKRPPRLPRPRPRPESVPRP, the “shrunken log2 fold change” value is 0.234.

As for RRIRVRPPRLPRPRPRPSFVPRP, the “shrunken log2 fold change” value was -0.422. To RRIRPRPPRLPRPRPRPALMPRP belongs 0.31. To RRIRLRPPRLPRPRPRPFLHPRP belongs -0.306; to RRIRKRPPRLPRPRPRPRIAPRP, 0.599. RRIRNRPPRLPRPRPRPPGFPRP: the “shrunken log2 fold change” value amounted to 1.54. For the sequence RRIRARPPRLPRPRPRPNQMPRP, the “shrunken log2 fold change” value turned out to be 0.143.

With RRIRRRPPRLPRPRPRPCAHPRP, the “shrunken log2 fold change” value turned out to be 0.067. To RRIRKRPPRLPRPRPRPTQPPRP belongs 0.606; to RRIRRRPPRLPRPRPRPIWLPRP, 0.0778.

Regarding RRIRFRPPRLPRPRPRPGQFPRP, the “shrunken log2 fold change” value is -0.148. In the case of RRIRIRPPRLPRPRPRPHSSPRP, the “shrunken log2 fold change” value is -0.448. On to RRIRDRPPRLPRPRPRPRAMPRP, for which the “shrunken log2 fold change” value is -0.0837.

In the case of RRIRIRPPRLPRPRPRPFFCPRP, the “shrunken log2 fold change” value was -0.106. As for RRIRERPPRLPRPRPRPQEPPRP, the figure is -0.0182; as for RRIRIRPPRLPRPRPRPNAKPRP, 0.0022. As for RRIRERPPRLPRPRPRPFSGPRP, the “shrunken log2 fold change” value is -0.55.

Regarding RRIRDRPPRLPRPRPRPGKDPRP, the “shrunken log2 fold change” value was -0.0503. For RRIRFRPPRLPRPRPRPSPPPRP, the “shrunken log2 fold change” value was 0.218. As for RRIRRRPPRLPRPRPRPPKEPRP, the “shrunken log2 fold change” value amounted to 0.0931. To RRIRNRPPRLPRPRPRPSQYPRP belongs -0.268. Take RRIRIRPPRLPRPRPRPVGAPRP: the “shrunken log2 fold change” value turned out to be 0.475. As for RRIRMRPPRLPRPRPRPGGFPRP, the “shrunken log2 fold change” value was 1.06. RRIRCRPPRLPRPRPRPRSAPRP: the “shrunken log2 fold change” value turned out to be 0.0532. As for RRIRGRPPRLPRPRPRPEVCPRP, the figure is 0.955; as for RRIRRRPPRLPRPRPRPYTCPRP, 0.0906; as for RRIRYRPPRLPRPRPRPTATPRP, -0.038. Regarding RRIRLRPPRLPRPRPRPCPEPRP, the “shrunken log2 fold change” value is -0.0401. Regarding RRIRDRPPRLPRPRPRPIYLPRP, the “shrunken log2 fold change” value turned out to be 2.37. As for RRIRSRPPRLPRPRPRPLFSPRP, the figure is -0.0902. As for RRIRQRPPRLPRPRPRPMVQPRP, the figure is -0.00171; as for RRIRQRPPRLPRPRPRPPKCPRP, -0.37; as for RRIRYRPPRLPRPRPRPDLWPRP, -0.0329. RRIRPRPPRLPRPRPRPWRMPRP: the “shrunken log2 fold change” value amounted to 0.217. Regarding RRIRHRPPRLPRPRPRPAKDPRP, the “shrunken log2 fold change” value is -0.0214. As for RRIRKRPPRLPRPRPRPWWDPRP, the figure is -0.0115. As for RRIRVRPPRLPRPRPRPWYSPRP, the figure is -0.183; as for RRIRVRPPRLPRPRPRPSITPRP, -0.504; as for RRIRHRPPRLPRPRPRPQHAPRP, 0.0729. Regarding RRIRHRPPRLPRPRPRPFRIPRP, the “shrunken log2 fold change” value was -0.127.

With RRIRKRPPRLPRPRPRPNVWPRP, the “shrunken log2 fold change” value stood at 0.258. In the case of RRIRWRPPRLPRPRPRPTNQPRP, the “shrunken log2 fold change” value came to 0.018. To RRIRSRPPRLPRPRPRPHWDPRP belongs 0.00395; to RRIRCRPPRLPRPRPRPRHLPRP, -0.302; to RRIRWRPPRLPRPRPRPRYDPRP, -0.248. Take RRIRHRPPRLPRPRPRPPIDPRP: the “shrunken log2 fold change” value came out at 0.065. Turning to RRIRLRPPRLPRPRPRPKRWPRP, the “shrunken log2 fold change” value amounted to 0.356.

Turning to RRIRGRPPRLPRPRPRPGINPRP, the “shrunken log2 fold change” value was determined as 0.499.

Consider RRIRIRPPRLPRPRPRPSRNPRP, for which the “shrunken log2 fold change” value is -0.124.

Take RRIRVRPPRLPRPRPRPAYDPRP: the “shrunken log2 fold change” value is -0.565. As for RRIRPRPPRLPRPRPRPHCLPRP, the figure is -0.374; as for RRIRFRPPRLPRPRPRPYVFPRP, -0.408. As for RRIRIRPPRLPRPRPRPTLYPRP, the “shrunken log2 fold change” value is -0.348. In the case of RRIRARPPRLPRPRPRPERKPRP, the “shrunken log2 fold change” value was 1.16. As to RRIRDRPPRLPRPRPRPTSQPRP, the “shrunken log2 fold change” value amounted to 0.495.

Take RRIRFRPPRLPRPRPRPMGKPRP: the “shrunken log2 fold change” value was -0.307. To RRIRKRPPRLPRPRPRPHKNPRP belongs 0.207; to RRIRVRPPRLPRPRPRPFPYPRP, -0.277. As for RRIRWRPPRLPRPRPRPMASPRP, the figure is 0.659. To RRIRCRPPRLPRPRPRPDQCPRP belongs -0.00126; to RRIRSRPPRLPRPRPRPMPRPRP, 0.346. On to RRIRKRPPRLPRPRPRPDGEPRP, for which the “shrunken log2 fold change” value stood at 1.16.

For the sequence RRIRVRPPRLPRPRPRPICCPRP, the “shrunken log2 fold change” value is -0.0831. RRIRERPPRLPRPRPRPIATPRP: the “shrunken log2 fold change” value was found to be 0.221.

Take RRIRPRPPRLPRPRPRPSFEPRP: the “shrunken log2 fold change” value is -0.102. As to RRIRVRPPRLPRPRPRPSEIPRP, the “shrunken log2 fold change” value was -0.623.

With RRIRNRPPRLPRPRPRPGFNPRP, the “shrunken log2 fold change” value is -0.207. With RRIRQRPPRLPRPRPRPNSQPRP, the “shrunken log2 fold change” value is 0.229. RRIRWRPPRLPRPRPRPDWGPRP: the “shrunken log2 fold change” value was -0.0819.

As to RRIRCRPPRLPRPRPRPTCRPRP, the “shrunken log2 fold change” value came out at 0.211.

On to RRIRQRPPRLPRPRPRPCCLPRP, for which the “shrunken log2 fold change” value was -0.0936. As for RRIRGRPPRLPRPRPRPMQVPRP, the figure is 0.162; as for RRIRFRPPRLPRPRPRPTPEPRP, 0.189; as for RRIRRRPPRLPRPRPRPGGKPRP, 0.0881. To RRIRIRPPRLPRPRPRPSPLPRP belongs -0.499; to RRIRIRPPRLPRPRPRPDITPRP, -0.0982; to RRIRPRPPRLPRPRPRPRYYPRP, -0.385. As to RRIRERPPRLPRPRPRPYYTPRP, the “shrunken log2 fold change” value was -0.116. As for RRIRIRPPRLPRPRPRPLRIPRP, the figure is -0.346; as for RRIRARPPRLPRPRPRPENWPRP, 0.569; as for RRIRPRPPRLPRPRPRPLIQPRP, -0.0119. As for RRIRLRPPRLPRPRPRPQQRPRP, the figure is -0.299; as for RRIRGRPPRLPRPRPRPMKVPRP, -0.0224; as for RRIRSRPPRLPRPRPRPPIYPRP, -0.0803. To RRIRIRPPRLPRPRPRPWLPPRP belongs -0.325. Take RRIRCRPPRLPRPRPRPCWVPRP: the “shrunken log2 fold change” value was -0.4.

Consider RRIRGRPPRLPRPRPRPAIIPRP, for which the “shrunken log2 fold change” value turned out to be 0.134. As for RRIRSRPPRLPRPRPRPLHSPRP, the figure is -0.0322; as for RRIRTRPPRLPRPRPRPYYPPRP, -0.335. For RRIRYRPPRLPRPRPRPSNQPRP, the “shrunken log2 fold change” value was -0.273.

For RRIRLRPPRLPRPRPRPMPIPRP, the “shrunken log2 fold change” value amounted to 0.301.

With RRIRFRPPRLPRPRPRPKMLPRP, the “shrunken log2 fold change” value was -0.0622. As to RRIRNRPPRLPRPRPRPNAVPRP, the “shrunken log2 fold change” value came out at 0.266. To RRIRERPPRLPRPRPRPPMLPRP belongs 1.29. In the case of RRIRTRPPRLPRPRPRPDACPRP, the “shrunken log2 fold change” value is -0.0191. Turning to RRIRSRPPRLPRPRPRPLQKPRP, the “shrunken log2 fold change” value turned out to be 0.0179.

Consider RRIRFRPPRLPRPRPRPIVDPRP, for which the “shrunken log2 fold change” value was -0.136. As for RRIRDRPPRLPRPRPRPFSMPRP, the figure is -0.506. As for RRIRSRPPRLPRPRPRPHVMPRP, the figure is -0.103.

Turning to RRIRMRPPRLPRPRPRPKNSPRP, the “shrunken log2 fold change” value was 0.132. On to RRIRDRPPRLPRPRPRPWCKPRP, for which the “shrunken log2 fold change” value is -0.171. As for RRIRTRPPRLPRPRPRPGTGPRP, the figure is 0.257. As for RRIRDRPPRLPRPRPRPASAPRP, the figure is 0.616; as for RRIRRRPPRLPRPRPRPVLNPRP, 0.0825; as for RRIRPRPPRLPRPRPRPHYIPRP, -0.586.

For the sequence RRIRERPPRLPRPRPRPKEEPRP, the “shrunken log2 fold change” value was -0.000921. To RRIRFRPPRLPRPRPRPHIFPRP belongs -0.021; to RRIRKRPPRLPRPRPRPNKIPRP, 0.0339; to RRIRGRPPRLPRPRPRPNPPPRP, 0.336. As for RRIRVRPPRLPRPRPRPPAWPRP, the figure is 0.498; as for RRIRSRPPRLPRPRPRPHYFPRP, -0.51.
